Assay results from publication doi:10.1101/2024.10.11.617910.

Legend:
[1] = target: pyroglutamate beta-amyloid peptide (pGlu3-Aβ); test: SiMoA
beta-amyloid 42 peptide = beta-amyloid 42 peptide (UniProt P05067); test: SiMoA

Row | Substance | limit of detection (LoD) [1] [pM] | limit of detection (LoD) (beta-amyloid 42 peptide) [pM]
1 | Donanemab (antibody) | 5 | –
2 | Aducanumab (antibody) | 56 | 200
